Consider 2 variants from IntAct's records for PubMed 19737519.

B1: Ribosome assembly protein 4 (Saccharomyces cerevisiae), P25382 (parent)
chain: MSTLIPPPSKKQKKEAQLPREVAIIPKDLPNVSIKFQALDTGDNVGGALRVPGAISEKQLEELLNQLNGTSDDPVPYTFSCTIQGKKASDPVKTIDITDNLYSSLIKPGYNSTEDQITLLYTPRAVFKVKPVTRSSSAIAGHGSTILCSAFAPHTSSRMVTGAGDNTARIWDCDTQTPMHTLKGHYNWVLCVSWSPDGEVIATGSMDNTIRLWDPKSGQCLGDALRGHSKWITSLSWEPIHLVKPGSKPRLASSSKDGTIKIWDTVSRVCQYTMSGHTNSVSCVKWGGQGLLYSGSHDRTVRVWDINSQGRCINILKSHAHWVNHLSLSTDYALRIGAFDHTGKKPSTPEEAQKKALENYEKICKKNGNSEEMMVTASDDYTMFLWNPLKSTKPIARMTGHQKLVNHVAFSPDGRYIVSASFDNSIKLWDGRDGKFISTFRGHVASVYQVAWSSDCRLLVSCSKDTTLKVWDVRTRKLSVDLPGHKDEVYTVDWSVDGKRVCSGGKDKMVRLWTH

The variants in the assay derive from B1. Particulars: with mdn1_yeast MDN1, Q12019.
Chain of mdn1_yeast MDN1, Q12019 (Q12019 whole entry): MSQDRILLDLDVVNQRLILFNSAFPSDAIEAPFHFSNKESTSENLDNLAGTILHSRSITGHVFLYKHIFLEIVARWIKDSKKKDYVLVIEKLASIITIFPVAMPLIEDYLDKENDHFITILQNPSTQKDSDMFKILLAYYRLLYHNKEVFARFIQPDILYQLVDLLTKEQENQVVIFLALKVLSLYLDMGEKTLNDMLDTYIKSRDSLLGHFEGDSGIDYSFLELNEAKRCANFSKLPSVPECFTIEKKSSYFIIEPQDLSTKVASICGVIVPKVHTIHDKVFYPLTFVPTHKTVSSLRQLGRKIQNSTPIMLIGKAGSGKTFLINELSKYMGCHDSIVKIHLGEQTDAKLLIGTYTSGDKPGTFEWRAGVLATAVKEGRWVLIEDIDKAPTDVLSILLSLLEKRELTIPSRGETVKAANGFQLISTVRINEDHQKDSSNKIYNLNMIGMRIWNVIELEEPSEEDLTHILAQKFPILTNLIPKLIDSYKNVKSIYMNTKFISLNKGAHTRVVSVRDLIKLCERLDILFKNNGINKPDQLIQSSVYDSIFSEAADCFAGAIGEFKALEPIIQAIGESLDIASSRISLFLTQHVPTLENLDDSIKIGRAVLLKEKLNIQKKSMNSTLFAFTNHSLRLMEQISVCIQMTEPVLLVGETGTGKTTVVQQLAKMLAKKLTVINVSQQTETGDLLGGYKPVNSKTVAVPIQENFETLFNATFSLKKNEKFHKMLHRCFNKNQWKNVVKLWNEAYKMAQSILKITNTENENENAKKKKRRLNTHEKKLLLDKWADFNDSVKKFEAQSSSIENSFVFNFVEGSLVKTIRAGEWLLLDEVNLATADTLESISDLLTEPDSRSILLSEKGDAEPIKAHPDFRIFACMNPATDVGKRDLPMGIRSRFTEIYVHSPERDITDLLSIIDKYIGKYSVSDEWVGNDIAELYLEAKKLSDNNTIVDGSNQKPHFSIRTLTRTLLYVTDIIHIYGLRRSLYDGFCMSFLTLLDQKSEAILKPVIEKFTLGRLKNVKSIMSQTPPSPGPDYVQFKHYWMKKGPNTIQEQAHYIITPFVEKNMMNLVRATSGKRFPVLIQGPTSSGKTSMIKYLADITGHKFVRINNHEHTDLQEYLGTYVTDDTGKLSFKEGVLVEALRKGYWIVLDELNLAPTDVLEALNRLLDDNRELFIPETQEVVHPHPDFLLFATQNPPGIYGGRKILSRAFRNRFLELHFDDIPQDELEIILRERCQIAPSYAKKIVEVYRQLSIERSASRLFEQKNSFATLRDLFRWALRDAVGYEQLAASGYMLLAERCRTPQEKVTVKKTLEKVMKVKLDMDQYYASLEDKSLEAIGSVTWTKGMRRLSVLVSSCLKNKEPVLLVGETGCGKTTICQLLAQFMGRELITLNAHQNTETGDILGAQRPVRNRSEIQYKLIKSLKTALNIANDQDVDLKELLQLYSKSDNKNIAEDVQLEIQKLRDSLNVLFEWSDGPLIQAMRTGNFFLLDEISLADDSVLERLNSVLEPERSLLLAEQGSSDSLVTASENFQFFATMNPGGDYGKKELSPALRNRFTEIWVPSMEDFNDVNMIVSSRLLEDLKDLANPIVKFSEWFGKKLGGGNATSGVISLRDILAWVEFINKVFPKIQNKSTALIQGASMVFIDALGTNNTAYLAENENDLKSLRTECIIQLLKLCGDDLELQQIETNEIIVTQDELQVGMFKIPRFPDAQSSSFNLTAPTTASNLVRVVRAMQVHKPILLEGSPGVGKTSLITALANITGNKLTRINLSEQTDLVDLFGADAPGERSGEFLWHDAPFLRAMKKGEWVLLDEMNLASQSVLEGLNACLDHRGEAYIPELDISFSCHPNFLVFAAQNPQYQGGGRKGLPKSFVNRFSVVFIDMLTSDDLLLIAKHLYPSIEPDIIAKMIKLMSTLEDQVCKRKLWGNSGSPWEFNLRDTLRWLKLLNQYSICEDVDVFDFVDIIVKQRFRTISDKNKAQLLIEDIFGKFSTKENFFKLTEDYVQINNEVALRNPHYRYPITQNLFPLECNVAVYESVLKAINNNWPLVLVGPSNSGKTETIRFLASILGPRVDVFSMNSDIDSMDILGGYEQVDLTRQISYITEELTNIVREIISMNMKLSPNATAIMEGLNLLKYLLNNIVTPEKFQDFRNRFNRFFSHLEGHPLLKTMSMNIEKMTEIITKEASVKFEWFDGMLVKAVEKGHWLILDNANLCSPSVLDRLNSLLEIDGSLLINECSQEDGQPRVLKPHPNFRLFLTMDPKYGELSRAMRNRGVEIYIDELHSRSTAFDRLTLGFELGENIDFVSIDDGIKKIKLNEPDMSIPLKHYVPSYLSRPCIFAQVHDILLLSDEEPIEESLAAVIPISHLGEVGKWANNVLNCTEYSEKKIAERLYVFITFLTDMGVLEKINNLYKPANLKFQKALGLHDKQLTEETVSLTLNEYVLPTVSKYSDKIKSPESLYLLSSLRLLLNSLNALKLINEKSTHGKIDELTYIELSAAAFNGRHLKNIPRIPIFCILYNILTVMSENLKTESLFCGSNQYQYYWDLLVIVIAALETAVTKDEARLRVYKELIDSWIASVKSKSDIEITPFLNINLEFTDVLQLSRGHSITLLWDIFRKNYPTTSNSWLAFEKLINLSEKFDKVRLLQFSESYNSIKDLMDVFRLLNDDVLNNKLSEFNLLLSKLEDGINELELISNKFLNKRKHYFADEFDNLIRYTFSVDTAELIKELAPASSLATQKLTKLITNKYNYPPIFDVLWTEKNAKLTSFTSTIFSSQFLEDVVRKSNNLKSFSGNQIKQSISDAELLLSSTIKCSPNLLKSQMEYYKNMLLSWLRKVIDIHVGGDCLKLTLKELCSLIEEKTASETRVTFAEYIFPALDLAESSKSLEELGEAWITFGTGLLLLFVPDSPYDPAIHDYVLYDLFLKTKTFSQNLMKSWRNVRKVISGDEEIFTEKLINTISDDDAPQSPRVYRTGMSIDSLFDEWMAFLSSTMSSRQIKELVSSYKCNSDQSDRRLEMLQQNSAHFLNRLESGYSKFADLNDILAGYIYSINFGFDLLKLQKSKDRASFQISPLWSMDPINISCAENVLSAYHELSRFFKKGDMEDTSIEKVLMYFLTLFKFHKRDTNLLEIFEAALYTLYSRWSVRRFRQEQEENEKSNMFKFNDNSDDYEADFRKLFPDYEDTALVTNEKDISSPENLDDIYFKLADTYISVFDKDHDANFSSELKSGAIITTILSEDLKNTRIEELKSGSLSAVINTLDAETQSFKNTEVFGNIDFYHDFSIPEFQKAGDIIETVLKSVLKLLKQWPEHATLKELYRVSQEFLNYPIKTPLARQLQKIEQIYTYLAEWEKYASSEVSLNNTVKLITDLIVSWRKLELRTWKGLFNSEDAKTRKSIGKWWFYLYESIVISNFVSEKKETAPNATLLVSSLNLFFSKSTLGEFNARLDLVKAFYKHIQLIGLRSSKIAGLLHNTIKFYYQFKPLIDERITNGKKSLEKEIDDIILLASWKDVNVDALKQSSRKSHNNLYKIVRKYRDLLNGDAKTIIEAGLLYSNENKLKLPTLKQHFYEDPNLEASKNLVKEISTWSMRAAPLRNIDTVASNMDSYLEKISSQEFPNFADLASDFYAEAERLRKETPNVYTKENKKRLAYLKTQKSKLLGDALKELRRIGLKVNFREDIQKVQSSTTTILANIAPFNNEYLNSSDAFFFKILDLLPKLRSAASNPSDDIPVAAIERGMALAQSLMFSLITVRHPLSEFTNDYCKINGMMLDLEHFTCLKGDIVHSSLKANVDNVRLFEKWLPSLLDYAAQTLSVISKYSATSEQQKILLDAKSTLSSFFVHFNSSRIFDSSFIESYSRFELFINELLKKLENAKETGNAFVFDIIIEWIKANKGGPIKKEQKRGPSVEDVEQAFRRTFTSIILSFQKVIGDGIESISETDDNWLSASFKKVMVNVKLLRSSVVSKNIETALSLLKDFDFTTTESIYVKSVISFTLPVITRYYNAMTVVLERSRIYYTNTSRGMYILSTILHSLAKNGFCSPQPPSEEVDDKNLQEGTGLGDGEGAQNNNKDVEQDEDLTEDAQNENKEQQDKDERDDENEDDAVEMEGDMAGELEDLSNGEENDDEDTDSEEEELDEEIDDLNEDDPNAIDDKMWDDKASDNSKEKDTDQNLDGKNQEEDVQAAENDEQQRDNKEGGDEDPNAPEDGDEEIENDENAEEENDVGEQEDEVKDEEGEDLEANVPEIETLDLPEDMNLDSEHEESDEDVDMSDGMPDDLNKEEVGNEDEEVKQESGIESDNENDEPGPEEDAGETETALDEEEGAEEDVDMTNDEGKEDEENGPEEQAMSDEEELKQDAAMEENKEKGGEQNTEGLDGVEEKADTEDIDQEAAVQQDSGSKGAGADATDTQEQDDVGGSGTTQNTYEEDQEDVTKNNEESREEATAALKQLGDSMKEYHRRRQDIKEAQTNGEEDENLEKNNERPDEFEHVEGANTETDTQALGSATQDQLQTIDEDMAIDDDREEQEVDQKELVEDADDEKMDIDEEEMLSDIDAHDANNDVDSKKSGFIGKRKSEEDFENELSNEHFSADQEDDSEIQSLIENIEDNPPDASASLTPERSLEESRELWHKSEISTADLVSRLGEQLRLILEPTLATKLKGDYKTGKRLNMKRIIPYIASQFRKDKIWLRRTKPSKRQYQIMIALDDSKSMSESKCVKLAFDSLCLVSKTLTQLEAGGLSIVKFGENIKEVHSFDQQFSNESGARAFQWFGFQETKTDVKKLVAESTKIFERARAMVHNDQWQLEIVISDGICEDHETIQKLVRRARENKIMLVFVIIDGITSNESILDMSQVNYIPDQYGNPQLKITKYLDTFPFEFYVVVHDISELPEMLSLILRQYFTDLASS
As for MSTLIPPPSKKQKKEAQLPREVAIIPKDLPNVSIKFQALDTGDNVGGALRVPGAISEKQLEELLNQLNGTSDDPVPYTFSCTIQGKKASDPVKTIDITDNLYSSLIKPGYNSTADQITLLYTPRAVFKVKPVTRSSSAIAGHGSTILCSAFAPHTSSRMVTGAGDNTARIWDCDTQTPMHTLKGHYNWVLCVSWSPDGEVIATGSMDNTIRLWDPKSGQCLGDALRGHSKWITSLSWEPIHLVKPGSKPRLASSSKDGTIKIWDTVSRVCQYTMSGHTNSVSCVKWGGQGLLYSGSHDRTVRVWDINSQGRCINILKSHAHWVNHLSLSTDYALRIGAFDHTGKKPSTPEEAQKKALENYEKICKKNGNSEEMMVTASDDYTMFLWNPLKSTKPIARMTGHQKLVNHVAFSPDGRYIVSASFDNSIKLWDGRDGKFISTFRGHVASVYQVAWSSDCRLLVSCSKDTTLKVWDVRTRKLSVDLPGHKDEVYTVDWSVDGKRVCSGGKDKMVRLWTH [E114A], the “effect of a mutation on the interaction” value is recorded as “decreasing interaction”.

Consider MSTLIPPPSKKQKKEAQLPREVAIIPKDLPNVSIKFQALDTGDNVGGALRVPGAISEKQLEELLNQLNGTSDDPVPYTFSCTIQGKKASDPVKTIDITDNLYSSLIKPGYNSTDDQITLLYTPRAVFKVKPVTRSSSAIAGHGSTILCSAFAPHTSSRMVTGAGDNTARIWDCDTQTPMHTLKGHYNWVLCVSWSPDGEVIATGSMDNTIRLWDPKSGQCLGDALRGHSKWITSLSWEPIHLVKPGSKPRLASSSKDGTIKIWDTVSRVCQYTMSGHTNSVSCVKWGGQGLLYSGSHDRTVRVWDINSQGRCINILKSHAHWVNHLSLSTDYALRIGAFDHTGKKPSTPEEAQKKALENYEKICKKNGNSEEMMVTASDDYTMFLWNPLKSTKPIARMTGHQKLVNHVAFSPDGRYIVSASFDNSIKLWDGRDGKFISTFRGHVASVYQVAWSSDCRLLVSCSKDTTLKVWDVRTRKLSVDLPGHKDEVYTVDWSVDGKRVCSGGKDKMVRLWTH [E114D], for which the “effect of a mutation on the interaction” value is reported as “decreasing interaction”.
